Data as given in US20050119176A1 (BURNHAM INSTITUTE, published 2005).
Where no end group is shown, it is not given here. [ ]: non-standard residue; d: D form. 2Nal = N[C@@H](Cc1ccc2ccccc2c1)C(=O)O; d2Nal = N[C@H](Cc1ccc2ccccc2c1)C(=O)O; 2Thi = N[C@@H](Cc1cccs1)C(=O)O; Cha = N[C@@H](CC1CCCCC1)C(=O)O; d2Thi = N[C@H](Cc1cccs1)C(=O)O; dCha = N[C@H](CC1CCCCC1)C(=O)O

Key:
[1] = biological target: GST-BIR2 (glutathione-S-transferase-BIR2 fusion protein) (human) (UniProt P98170); assay: fluorescence polarization; 20 nM rhodamine-SMAC, GST-BIR2 from 0 to 495 nM
Sequence of GST-BIR2 (glutathione-S-transferase-BIR2 fusion protein) (human) (P98170 124-240): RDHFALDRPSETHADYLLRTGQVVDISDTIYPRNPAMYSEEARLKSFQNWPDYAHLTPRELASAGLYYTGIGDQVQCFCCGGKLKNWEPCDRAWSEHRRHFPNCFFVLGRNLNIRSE

BIR3RING (human) = BIR3RING (human) (UniProt P98170); assay: fluorescence polarization; 20 nM rhodamine-SMAC, BIR3RING titrated
Sequence of BIR3RING (human) (P98170 243-497 limits assumed): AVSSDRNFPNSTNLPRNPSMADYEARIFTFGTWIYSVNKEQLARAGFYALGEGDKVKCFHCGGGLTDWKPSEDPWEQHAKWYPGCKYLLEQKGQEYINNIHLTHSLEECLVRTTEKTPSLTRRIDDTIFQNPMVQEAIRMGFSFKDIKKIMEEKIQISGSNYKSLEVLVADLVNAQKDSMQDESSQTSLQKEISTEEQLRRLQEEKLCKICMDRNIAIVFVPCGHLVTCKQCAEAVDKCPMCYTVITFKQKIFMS

GST-XIAP = GST-XIAP (human, UniProt P98170 1-497); assay: cell-based or functional assay
Sequence of GST-XIAP (P98170 whole entry): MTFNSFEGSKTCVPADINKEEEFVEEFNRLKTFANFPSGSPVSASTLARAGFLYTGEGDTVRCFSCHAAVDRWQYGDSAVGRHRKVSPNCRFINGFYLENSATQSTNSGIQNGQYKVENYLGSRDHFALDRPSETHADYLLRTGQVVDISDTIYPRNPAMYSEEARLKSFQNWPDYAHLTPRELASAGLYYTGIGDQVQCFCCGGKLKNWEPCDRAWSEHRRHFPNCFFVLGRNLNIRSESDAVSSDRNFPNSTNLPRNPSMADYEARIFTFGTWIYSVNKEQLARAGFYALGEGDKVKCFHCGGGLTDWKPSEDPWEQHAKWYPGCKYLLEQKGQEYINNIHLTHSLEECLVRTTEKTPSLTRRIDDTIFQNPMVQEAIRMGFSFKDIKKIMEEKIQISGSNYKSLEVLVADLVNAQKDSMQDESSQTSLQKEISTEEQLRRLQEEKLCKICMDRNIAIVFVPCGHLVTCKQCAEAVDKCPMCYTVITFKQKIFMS

Row | Molecule | Kd [1] [nM] | Kd (BIR3RING (human)) [nM] | ratio of Vmax for hydrolysis of Ac-DEVD-AFC with and without the peptide (caspase-3 + XIAP) (GST-XIAP)
1 | rhodamine labeled SMAC (rhodamine-SMAC) of Example VII (peptide) | 100 | 80 | 
2 | AWW[2Thi] (also: Trp of TPI 1332 batch may retain formyl groups) [TPI 1332-1 / TPI 1352-1] |  |  | > 2.4
3 | A[dW]W[2Thi] (also: Trp of TPI 1332 batch may retain formyl groups) [TPI 1332-47 / TPI 1352-47] |  |  | > 2.4
4 | [Cha][d2Nal]W[2Thi] (also: Trp may retain a formyl group) [TPI 1332-41] |  |  | > 2.4
5 | A[dW]W[2Thi] [TPI 1352-6] |  |  | > 2.4
6 | [2Nal][dCha]W[dW] [TPI 1352-66] |  |  | > 2.4
7 | [2Nal][d2Thi][dF][dW] [TPI 1352-72] |  |  | > 2.4
